This is an account of results in paper doi:10.1101/2022.08.10.503460 (bioRxiv, 2022).

The test addresses Mouse Pcdh15 EC1-2 (mouse, UniProt Q99PJ1 27-259). As to the kind of experiment: AFM force-clamp spectroscopy.

B1: Mouse Cdh23 EC1-2 (domain or fragment)
chain: QVNRLPFFTNHFFDTYLLISEDTPVGSSVTQLLARDMDNDPLVFGVSGEEASRFFAVEPDTGVVWLRQPLDRETKSEFTVEFSVSDHQGVITRKVNIQVGDVNDNAPTFHNQPYSVRIPENTPVGTPIFIVNATDPDLGAGGSVLYSFQPPSPFFAIDSARGIVTVIQELDYEVTQAYQLTVNATDQDKTRPLSTLANLAIIITD
In general, koff refers to the rate constant with which the complex falls apart. The low end stands for slow dissociation, the high end for fast dissociation. As for B1, the dissociation rate constant (koff) was 0.2 s⁻¹.
